Source: US20240327502A1

Columns and labels:
[1] = substrate: F protein of hMPV B virus (human metapneumovirus subtype B); assay: cell-based or functional assay
[2] = substrate: F protein of hMPV A virus (human metapneumovirus subtype A); assay: cell-based or functional assay

Binder | PRNT IC50 [1] | PRNT IC50 [2]
M4A08 (antibody, V domains shown) VH: EVQLVESGGALVRPGGSLRVSCEASGFNFRTHWMHWVRQAPGKGLVWVARTNGDGSVTNYADSVKGRFTFFRDNAKNTLFLQMTSLRVDDTAVYYCARERLDYSSTRGHFPGDFDSWGQGTLVTVSS VL: DIVMTQSPDSLAVSLGERATINCKSSESVLYTSNSKNYLAWYQQKPGHPPKVLIYWASTRESGVPDRFSGSGSGTDFSLSISSLQAEDVAVYYCQQYFTIPRTFGQGTKVEIK | 0.344 µg/mL | 0.136 µg/mL
M4B01 (antibody, V domains shown) VH: EVQLLESGGGLVQPGGSLRLSCAASGFNFNTYAMSWVRQAPGKGLKWISTISGSGGVKYYADSVKGRFTISRDNSGSILYLQMNRLRADDTAVYYCAKSQNPQLVFFDSFDMWGQGSMVTVSS VL: QSVLTQAPSASAAPGQKVTISCSGSTSNIGNSYVSWYQQVPGTAPKLLIYEDNQRPSGIPDRFSGSKSGTSATLGITGLQTGDEADYYCGTWDNSLTEVVFGGGTKLTVL | 0.0628 µg/mL | 0.0371 µg/mL
M2E06 (antibody, V domains shown) VH: EVQLVESGGDLVQPGGSLRLSCEASAFTFSDYAMTWVRQAPGKGLEWVSSINTSGGRTYYADSVKGRFTISRDNSKNTLYLQMKSLRAEDTAVYFCARFFYVMDVWGQGTTVTVSS VL: AIQMTQSPSSLSASVGDRVTITCRASQGVRNDLGWYQQKPGKAPKLLINAASGLQSGVPSRFSGSGSDTDFTLTISSLQPEDFATYYCLQVYSYPFTFGPGTKVDIK | 0.139 µg/mL | 0.105 µg/mL
M2D10 (antibody, V domains shown) VH: QVQLVQSGAEVKKPGASVRISCKPSGRAFLTYDINWVRQAPGQGLEWMAGMNPGSGNAAYAPKFQGRLTMIRNTSISTDYLELSSLTSEDTAVYYCARGEVSMRWRWLDPWGQGSLVTVTS VL: DIQMTQSPSSLSASVGDRVTITCRASQTISNFLNWYQQKPGRAPKVLIYAALNLQSGVPSRFRGSGSGTDFTLTINNLQPEDFAIYYCQQSYITPWTFGQGTKVEIK | 1.34 µg/mL | 0.759 µg/mL
M2A09 (antibody, V domains shown) VH: QVQLVQSGAGVRKPGSSVKVSCKASGGTFSNYIISWVRQAPGQGLEYIGRIIPIVGMEKYEEKFQGRVKITADESTSTVSMELTSLKSEDTATYYCATEGLESGYPPYLEHWGRGTLVIVSS VL: EIVLTQSPGTLSLSPGERATLSCRTSQTVGAHLAWYQQKPGQSPRLLIYGASSRATGIPDRFSGSGSGTVFTLTINRLEPEDLAVYYCQQYGASPPTFGQGTKVEIK | 0.0456 µg/mL | 0.0133 µg/mL
M4A12 (antibody, V domains shown) VH: QLQESGSGPGLVKPSETLSLICNASGDSVTRNAYYWGWLRQPPGKGLEWIGIMYYSGSTFYNPSLKSRLTISVDTSKNQFSLKLRSVTAADTATYYCGEATLTTYDAFDVWGHGTMVTVSS VL: QSVLTQPPSVSAAPGQRVTISCSGGNSNIGKNYVSWYQQVPGTAPKLLIYENNKRPSGIPDRFSGSKSGTSATLGITGLQTGDEADYYCGAWDSSLNGVLFGGGTRLTVL | 0.0744 µg/mL | > 10 µg/mL
M1A01 (antibody, V domains shown) VH: QVQLVQSGAEVKKPGSSVKVSCWASGGTFDNAINWLRQAPGQGPEWMGRIIPLVDIVNRAPKFQDRVSFTADKSTNTVYMVLNSLTSDDTAVYYCASAFQDGWFDPWGQGTLVTVSS VL: EIVLTQSPATLSLSPGERATLSCRASQSLSRYLAWYQQKPGQAPRLLIYDASNRATGVPARFSGSGSGTDFTLTISSLEPEDFAVYYCHQRHNWITFGQGTRLEIK | 4 µg/mL | 3.41 µg/mL
M4C02 (antibody, V domains shown) VH: QLQLQESGPRLVKPSETLSLTCSVSGGSISSSSLYWGWIRQSPGKGLEWIGTIYYGGSSDYNPSLKSRLTMSVDTSKNHFSLRLSSVTAADTAVYYCARVGSPVTTTVWFDPWGQGTLVTVSS VL: DIQMTQSPSSLAASIGDRVTITCRASQTISTYLNWYQQKPGKAPKLLIYAASTLQSGVPSRFSGSGSGTDFTLTISSLQPEDFATYYCQQTYSSLALTFGGGTKVEIR | 0.173 µg/mL | 0.577 µg/mL
M2B07 (antibody, V domains shown) VH: EVQLVESGGGLVRPGGSLRLSCAASGFTFNNYWMHWVRQAPGKGLVWVSHVKSDGSITNYADSVKGRFTISRDNAKNTLYLEMSSLRVEDTAVYYCARESRPYDPLTGSHPDAFDIWGQGTMVTVSS VL: DIVMTQSPDSLAVSLGERATINCKSSESIFYYSNSKSYLAWYRQKPGQPPKLLIYWASTRESGVPDRFSGSGSGTDFTLTISSLQPEDVAVYYCQQYYTNPRTFGQGTRLEIK | 0.426 µg/mL | 0.625 µg/mL
M3E01 (antibody, V domains shown) VH: EVQLVESGGGLIQPGGSLRLSCTASGFTVSSKYMSWVRQAPGKGLEWVSLIYDGGSTYYADSVKGRFLISRDNAKNTLYLQMHSLRAEDTAVYYCARDRGTYSGYDWYSGMDVWGQGTTVTVSS VL: DIQLTQSPSFLSASVGDRITITCRASQGISSYLAWYQQKPGKAPKLLIYAASTLQSGVPSRFSGSGSGTEFNVTISSLQPEDFATYYCQQLKSYPGTFGQGTKVEIE | > 10 µg/mL | > 10 µg/mL
M1A12 (antibody, V domains shown) VH: QVQLVQSGTEVKKPGSSVKVSCKDPGDIMSSHSIHWVRQAPGQGPEWMGRIIPLFGMKSYAPNFQGRVSISVDTSTNTAYLELSGLKSDDTAVYFCAREENLSWLDYWGQGTQVIVSS VL: EIVLTQSPATLSLSPGDRATLSCRASLRLSTNIAWYQQKPGQAPRLVIYDASKRATGIPARFSGSGSGTDFTLTISSLEPEDFAVYYCHQHSNWYTFGQGTKLEIK | 5 µg/mL | 1.51 µg/mL
M3D06 (antibody, V domains shown) VH: EVQLVESGGGLVQPGGSLRLSCAASGFPFNFYWMHWVRQAPREGLVWVSRINNDGSSPNYADSVWGRFTISRDNAKNTLYLQMHSLRAEDTAVYYCARAARFGDYVDQWGQGTLVTVSS VL: AIQLTQSPSSLSASMGDRVTITCRASQGISSAFAWYQQKPGKAPKLLIYDASTLESGVPSRFSGSGSGTDFTLTISSLQPEDFATYYCQQFNSYPLTFGGGTKVEIK | > 10 µg/mL | > 10 µg/mL
M3D12 (antibody, V domains shown) VH: QVQLQESGPGLVKPSQTLSLTCTVSGASVSSEYYYWSWIRQPPGKGLEWIGYIYHNGDTYYNPSLKGRGIISMDTSKNQFSLKLISVTAADTAVYYCARLAVAGVTGFHYWGLGTLVTVSS VL: EIVLTQSPDTLSLSPGERATLSCRASRSVRNYLAWYQQKPGQAPRLLIYDASNRAPGIPARFSGSGSETDFTLTISSLEPEDFAVYYCQQRSNWGLTFGGGTKVEIK | 0.0145 µg/mL | 0.0231 µg/mL
M3E03 (antibody, V domains shown) VH: QVQLVESGGGVVQPGRSLRLSCVASGFPFDSFAMHWVRQAPGKGLEWVAIVWYDGGDKFYSESVKGRFSISRDNSRNTVFLQMNSLRAEDTAVYYCARGMITFDYWGPGTLVTVSS VL: EIVLTQSPGTLSLSPGERATLSCRASQNVDSSYLAWYQQKPGQAPRLLMYGASTRVAGIPDRFSGSGSGTDFTLTISRLEPEDFVVYYCQQYGTSPTWTFGQGTKVEIK | 0.0762 µg/mL | 0.0199 µg/mL
M4B04 (antibody, V domains shown) VH: QVQLVESGGGVVQPGKSLRLSCAASGFTFRSYTMFWVRQAPGKGLEWVAIILHDGTNRYYTDSVKGRFTISRDNTKNTVYLQMNSLRPEDTAMYYCARESLEWMLDWGQGTLVTVSS VL: EIVMTQSPATLSVSPGERATLSCRASQSLSGNLAWFQQKPGQAPRLLIYGTSTRATGIPARFSGSGSGTEFTLTISSLQSEDFAVYYCQQYNNWPPVFTFGPGTKVDIK | 1.97 µg/mL | 4.59 µg/mL
M3D09 (antibody, V domains shown) VH: QVQLVESGGGVVQSGKSLGLSCIASGFIFSNYALHWVRQAPGKGLEWLSVISYDGTNKYYANSVRGRFTVSRDNSKNTLFLHMNSLGVDDTAMYYCARDPERLADLGRMDFWGRGTLVAVLS VL: DIVMTQSPDSLAVSLGERATINCKSSQSVLFSPNNKNYLAWYQQKPGQPPKLLIYWASTREYGVPERFSGSGSGTDFTLTISSLQAEDVAVYYCQQYNSNPYTFGQGTKLEIR | 0.28 µg/mL | 2 µg/mL
M6E10 (antibody, V domains shown) VH: QVQLVQSGAEVKKPGSSVKVSCNASGGIFDTNVINWVRQAPGQGLEWMGGIIPPFGTALYAHQFQGRLTLTVDESTNTAYMDLSSLRSDDTAVYFCARDRTVIKYADGMDVWGQGTTVTVSS VL: DIQMTQSPSSLSASVGDKVAITCRASQTISPYLNWYQQKPGKAPNLLIYGTNKLQSGVPLRFSGSGSGTDFTLTINGLQPEDFATYFCQQSHTTPLTFGGGTKVEIKR | 0.0104 µg/mL | 0.0237 µg/mL
M2D07 (antibody, V domains shown) VH: QVQLVESGGAVVQPGRSLRLSCAASGFTFTSFSMHWVRQAPGRGLEWVAVISHDGIIKYYADSVKGRFTISRDNSKNTVFLQMNSLRPEDTAVFYCARDFPGSRGFFRYYFDHWGQGTLVTVSS VL: DIQMTQSPSSLSASVGGSVTITCRVDQSISNDLHWYQQKPGKAPKLLISSASSLQSGVPSRFSGSGSGTDFTLTITSLQPEDFATYYCQQSYTTPPLFGQGTTLEIK | 2.5 µg/mL | 1.07 µg/mL
M1C11 (antibody, V domains shown) VH: QVQLVQSGAEMKKPGSSVKVSCKTSGGSFSSYPVSWVRQAPGQGPEWMGGIIPLSGTTHYAQMFQGRVSITADDSTRTVFMELTSLRSGDTAVYYCARSGAPTYYYDSSGFHGGAFHFWGQGTVVTVSS VL: DIVMTQSPDSLAVSLGERATINCKSSQSVLYSSNSKSYLAWYQQKPGQPPKLLIYWASSRESGVPDRFSGSGSGTDFTLTISSLQAEDVAVYYCQQFYTSPHTFGQGTKLEIKR | 0.444 µg/mL | 5.92 µg/mL
M3C07 (antibody, V domains shown) VH: QLQLQESGPGLVKPWETLSLTCIVSGGSISRSTHYWGWIRQSPEMGLEWIGSIYYTGNTYYNPSFKSRVTISVDTSRNQLSLRVNSVSAADTARYYCARHETYDYGVFNIWGQGAMVTVSA VL: EIVLTQSPGTLSLSPGERAILSCRASQTVSSDYLAWYQQRPGQAPRLLIYDASSRATGVPDRFRGSGSGTDFTLTISRLEPEDFGVYYCQQYGSPYTFGQGTKLEIK | > 10 µg/mL | > 10 µg/mL
